This experiment concerns the target glutathione-S-transferase coupled human VDR fusion protein (human) (UniProt P11473). The experiment is described as follows: pull-down; GSThVDR-Sepharose bead slurry as bait, [35S]-labelled in vitro translated RUNX2 as prey; PPI buffer (20 mM HEPES pH 7.9, 200 mM KCl, 1 mM EDTA, 4 mM MgCl2, 1 mM dithiothreitol, 0.1% Nonidet P-40, 10% glycerol), beads pre-blocked with BSA; with or without 1,25(OH)2D3; SDS-PAGE, autoradiography, densitometry.
UniProt P11473, sequence (P11473 whole entry, the tested form may be a part): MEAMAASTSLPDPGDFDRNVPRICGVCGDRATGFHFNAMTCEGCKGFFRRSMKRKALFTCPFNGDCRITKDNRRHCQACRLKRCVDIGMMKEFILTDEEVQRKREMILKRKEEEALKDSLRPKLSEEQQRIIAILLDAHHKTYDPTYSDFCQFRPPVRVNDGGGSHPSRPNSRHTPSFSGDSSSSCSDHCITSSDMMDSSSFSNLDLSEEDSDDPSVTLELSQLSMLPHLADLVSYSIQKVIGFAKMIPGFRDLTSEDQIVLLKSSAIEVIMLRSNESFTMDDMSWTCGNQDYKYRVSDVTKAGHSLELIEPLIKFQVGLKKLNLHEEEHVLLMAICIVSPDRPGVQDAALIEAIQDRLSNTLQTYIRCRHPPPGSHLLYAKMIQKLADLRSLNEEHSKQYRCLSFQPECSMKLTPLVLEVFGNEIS

Regarding “human RUNX2 23Q wild type (natural protein)”, the percent of label recovered in pull down stood at 25%.

The record behind these values is paper PMC3418257.
